# Reference: patent publication US20190218261A1, “TARGETED ENHANCED DNA DEMETHYLATION” (The Jackson Laboratory, priority 2016, published 2019)
# System: hMLH1 expression (methylation-silenced hMLH1 promoter) in HEK293T cells
# Assay: hMLH1 mRNA levels by TaqMan qRT-PCR in transfected HEK293T cells
# Type: cell-based, human
# Description: To test the system, HEK293T cells were transfected with Casilio-ME components including Ct or Nt-fusion TET1-effector and a combination of 3 or 2 sgRNAs. Relative levels of hMLH1 mRNA were determined in TaqMan assays by using RNA extracted from cells 60 hours post-transfection and GAPDH as endogenous control for normalization of qRT-PCR measurements.
# Cell culture and transfection. HEK293T cells were cultivated in Dulbecco's modified Eagle's medium (DMEM)(Sigma) with 10% fetal bovine serum (FBS)(Lonza), 4% Glutamax (Gibco), 1% Sodium Pyruvate (Gibco) and penicillin-streptomycin (Gibco) in an incubator set to 37° C. and 5% CO2. When indicated cells were treated with 2.5 μM or 5 μM 5-Azacytidine (sigma) as indicated with a daily change of medium containing freshly diluted drug. Cells were seeded into 12-well plates at 150,000 cells per well the day before being transfected with 100 ng of dCas9 construct, 100 ng of modified sgRNA construct and 200 ng of PUF-fusion with Attractene transfection reagent according to manufacturer's instructions (Qiagen). In dCas9-direct fusion experiments, cells were transfected with 200 ng dCas9-fusion constructs and 200 ng of modified sgRNA constructs. Transfected cells were harvested 60 hours after transfection, or otherwise indicated, and cell pellets were used for extractions of RNA, genomic DNA and protein.
# Quantitative RT-PCR analysis. Cells were harvested, washed with Dulbecco's phosphate-buffered saline (dPBS), centrifuged at 125×g for 5 min and then the flash-frozen pellets were stored at −80° C. RNA was extracted using RNeasy Plus Mini Kit according to the manufacturer's instructions (Qiagen). cDNA libraries were made using Applied Biosystems High Capacity RNA-to-cDNA kit with 200 ng to 1 μg of RNA. TaqMan gene expression assays (Applied Biosystems) were designed using GAPDH (Hs03929097, VIC) as endogenous control and hMLH1 (Hs00179866, FAM) as target. TaqMan Universal Master Mix II, with UNG (Applied Biosystems) was used for Quantitative PCR (qPCR), with 2 μl of diluted cDNA used for each reaction. Activation was analyzed with the Applied Biosystems ViiA7 instrument. Gene expression levels were calculated by “delta delta Ct” algorithm and normalized to control samples.
# HEK293T cells were cultivated in Dulbecco's modified Eagle's medium (DMEM) (Sigma) with 10% fetal bovine serum (FBS) (Lonza), 4% Glutamax (Gibco), 1% Sodium Pyruvate (Gibco) and penicillin-streptomycin (Gibco) in an incubator set to 37° C. and 5% CO2. Cells were seeded into 12-well plates at 150,000 cells per well the day before being transfected with 100 ng of dCas9 construct, 100 ng of modified sgRNA construct and 200 ng of PUF-fusion with Attractene transfection reagent according to manufacturer's instructions (Qiagen). Transfected cells were harvested 3 days after transfection, or otherwise indicated, and cell pellets were used for RNA extractions.
# Cells were harvested, washed with Dulbecco's phosphate-buffered saline (dPBS), centrifuged at 125×g for 5 min and then the flash-frozen pellets were stored at −80° C. RNA was extracted using RNeasy Plus Mini Kit according to the manufacturer's instructions (Qiagen). cDNA libraries were made using Applied Biosystems High Capacity RNA-to-cDNA kit with 200 ng to 2 μg of RNA. TaqMan gene expression assays (Applied Biosystems) were designed using GAPDH (Hs03929097, VIC) as endogenous control and hMLH1 (Hs00179866, FAM) as target. TaqMan Universal Master Mix II, with UNG (Applied Biosystems) was used for Quantitative PCR (qPCR), with 2 μl of diluted cDNA used for each reaction. Activation was analyzed with the Applied Biosystems ViiA7 instrument. Gene expression levels were calculated by “delta delta Ct” algorithm and normalized to control samples.
molecule,measurement,setting,value
"NEIL2: NEIL2 glycosylase enhancer, tested fused to PUFa-TET1(CD) (either PUFa terminus) or to PUFc (protein) MLPEGPLVRKFHHLVSPFVGQQVVKTGGSSKKLQPASLQSLWLQDTQVHGKKLFLRFDLDEEMGPPGSSPTPEPPQKEVQKEGAADPKQVGEPSGQKTLDGSSRSAELVPQGEDDSEYLERDAPAGDAGRWLRVSFGLFGSVWVNDFSRAKKANKRGDWRDPSPRLVLHFGGGGFLAFYNCQLSWSSSPVVTPTCDILSEKFHRGQALEALGQAQPVCYTLLDQRYFSGLGNIIKNEALYRAGIHPLSLGSVLSASRREVLVDHVVEFSTAWLQGKFQGRPQHTQVYQKEQCPAGHQVMKEAFGPEDGLQRLTWWCPQCQPQLSEEPEQCQFS",increase in gene activation with NEIL2 in the PUFa-TET1CD fusion (repeat experiment),"MLH1 gRNAs, NEIL2 at either PUFa terminus",four-fold increase in gene activation
same,increase in hMLH1 expression with NEIL2 fused to PUFc,"co-expressed with PUFa-TET1(CD), gRNAs with PBSa/c, RT-quantitative PCR",7 fold
same,hMLH1 activation by DNA glycosylase two-in-one effector fusions (in words),"fusions to PUFa-TET1(CD), gRNA 5xPBSa, HEK293T, 3 days",enhanced activation of hMLH1
same,effect on TET1-mediated gene activation when gRNA lacked PBSc,gRNA scaffold with PBSa only,no effect on TET1-mediated gene activation
same,hMLH1 activation relative to TET1 effector alone,two-in-one fusion to PUFa-TET1(CD),3 fold
TET1(CD)(H1671Y D1673A)-PUFa: catalytically dead TET1(CD) PUFa fusion; SEQ ID NO:110 (protein) MIDGGGGSDPKKKRKVDPKKKRKVDPKKKRKVGSTGSRNDGGGGSGGGGSGGGGSGRAGILPPKKKRKVSRGRSRLLEDFRNNRYPNLQLREIAGHIMEFSQDQHGSRFIQLKLERATPAERQLVFNEILQAAYQLMVDVFGNYVIQKFFEFGSLEQKLALAERIRGHVLSLALQMYGSRVIEKALEFIPSDQQNEMVRELDGHVLKCVKDQNGNHVVQKCIECVQPQSLQFIIDAFKGQVFALSTHPYGCRVIQRILEHCLPDQTLPILEELHQHTEQLVQDQYGNYVIQHVLEHGRPEDKSKIVAEIRGNVLVLSQHKFASNVVEKCVTHASRTERAVLIDEVCTMNDGPHSALYTMMKDQYANYVVQKMIDVAEPGQRKIVMHKIRPHIATLRKYTYGKHILAKLEKYYMKNGVDLGDPKKKRKVDPKKKRKVGGRGGGGSGGGGSGGGGSGPAELPTCSCLDRVIQKDKGPYYTHLGAGPSVAAVREIMENRYGQKGNAIRIEIVVYTGKEGKSSHGCPIAKWVLRRSSDEEKVLCLVRQRTGHHCPTAVMVVLIMVWDGIPLPMADRLYTELTENLKSYNGHPTDRRCTLNENRTCTCQGIDPETCGASFSFGCSWSMYFNGCKFGRSPSPRRFRIDPSSPLHEKNLEDNLQSLATRLAPIYKQYAPVAYQNQVEYENVARECRLGSKEGRPFSGVTACLDFCAHPYRAIHNMNNGSTVVCTLTREDNRSLGVIPQDEQLHVLPLYKLSDTDEFGSKEGMEAKIKSGAIEVLAPRRKKRTCFTQPVPRSGKKRAAMMTEVLAHKIRAVEKKPIPRIKRKNNSTTTNNSKPSSLPTLGSNTETVQPEVKSETEPHFILKSSDNTKTYSLMPSAPHPVKEASPGFSWSPKTASATPAPLKNDATASCGFSERSSTPHCTMPSGRLSGANAAAADGPGISQLGEVAPLPTLSAPVMEPLINSEPSTGVTEPLTPHQPNHQPSFLTSPQDLASSPMEEDEQHSEADEPPSDEPLSDDPLSPAEEKLPHIDEYWSDSEHIFLDANIGGVAIAPAHGSVLIECARRELHATTPVEHPNRNHPTRLSLVFYQHKNLNKPQHGFELNKIKFEAKEAKNKKMKASEQKDQAANEGPEQSSEVNELNQIPSHKALTLTHDNVVTVSPYALTHVAGPYNHWVID,hMLH1 expression without TET1 catalytic activity,GADD45A expressed with catalytically dead TET1(CD) fusion or without TET1(CD) fusion,no hMLH1 expression was detected
PUFc-NEIL2: SEQ ID NO:127 (protein) MIDGGGGSDPKKKRKVDPKKKRKVDPKKKRKVGSTGSRNDGGGGSGGGGSGGGGSGRAGILPPKKKRKVSRGRSRLLEDFRNNRYPNLQLREIAGHIMEFSQDQHGSRFIQLKLERATPAERQLVFNEILQAAYQLMVDVFGNYVIQKFFEFGSLEQKLALAERIRGHVLSLALQMYGSRVIEKALEFIPSDQQNEMVRELDGHVLKCVKDQNGNHVVQKCIECVQPQSLQFIIDAFKGQVFALSTHPYGCRVIQRILEHCLPDQTLPILEELHQHTEQLVQDQYGSYVIEHVLEHGRPEDKSKIVAEIRGNVLVLSQHKFANNVVQKCVTHASRTERAVLIDEVCTMNDGPHSALYTMMKDQYANYVVQKMIDVAEPGQRKIVMHKIRPHIATLRKYTYGKHILAKLEKYYMKNGVDLGDPKKKRKVDPKKKRKVGGRGGGGSGGGGSGGGGSGPALPEGPLVRKFHHLVSPFVGQQVVKTGGSSKKLQPASLQSLWLQDTQVHGKKLFLRFDLDEEMGPPGSSPTPEPPQKEVQKEGAADPKQVGEPSGQKTLDGSSRSAELVPQGEDDSEYLERDAPAGDAGRWLRVSFGLFGSVWVNDFSRAKKANKRGDWRDPSPRLVLHFGGGGFLAFYNCQLSWSSSPVVTPTCDILSEKFHRGQALEALGQAQPVCYTLLDQRYFSGLGNIIKNEALYRAGIHPLSLGSVLSASRREVLVDHVVEFSTAWLQGKFQGRPQHTQVYQKEQCPAGHQVMKEAFGPEDGLQRLTWWCPQCQPQLSEEPEQCQFS,stimulation of TET1(CD) mediated hMLH1 activation by independent NEIL2 module,"dual expression with PUFa-TET1(CD), gRNAs with both PBSa/c",significant stimulation of the TET1(CD) mediated hMLH1 activation
